Laboratory results as given in patent US20240317857A1 (AMPSOURCE BIOPHARMA SHANGHAI, published 2024).

Tests used:
[1] = biological target: T1, human CD3E (purchased from Acro Biosystems) (human, UniProt P07766 23-126); experiment: ELISA, plate coated with human CD3E
T1 construct: also called human CD3 antigen; human CD3E molecules
Protocol: A microtiter plate was coated with 100 μL of 0.1 μg/mL human CD3E (purchased from Acro Biosystems) overnight at room temperature. The coating solution was discarded, and the wells were blocked with skimmed milk dissolved in phosphate buffered saline (PBS) for 0.5 hours and washed with PBS containing 0.05% Tween-20 (PBST). Then the purified murine antibodies AP191, AP591 and AP831 against human CD3 were added with 50 μL per well and incubated for 1 h at room temperature. The wells were washed with 0.05% PBST. Then 50 μL of HRP-labeled goat anti-mouse IgG polyclonal antibody (purchased from Jackson Laboratory) was added per well as the detected antibody and incubated for 1 h at 37° C. The wells were washed three times with 0.05% PBST, added with TMB (100 μL/well) and developed at room temperature for 5 min. 0.2 M H₂SO₄ was added to terminate the reaction, 50 μL/well. Absorption values were read by a microplate reader at double wavelengths 450 nm/620 nm. Plotting was performed by software GraphPad Prism 6 with OD 450 nm/620 nm as the Y-axis and an antibody concentration as the X-axis.

[2] = biological target: T2, human CD3 on human T cells (human, UniProt P07766 23-207); experiment: flow cytometry on human primary T cells
T2 construct: whole, on cells; also called human primary T cells; NFAT-Jurkat cells
T2 sequence (P07766 23-207): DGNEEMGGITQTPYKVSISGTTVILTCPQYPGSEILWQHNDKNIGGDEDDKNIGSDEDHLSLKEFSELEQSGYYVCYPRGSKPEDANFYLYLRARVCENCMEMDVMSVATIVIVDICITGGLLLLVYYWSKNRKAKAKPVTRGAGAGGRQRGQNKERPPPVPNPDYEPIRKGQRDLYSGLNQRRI

[3] = biological target: T3, His-labeled human CD3E (human, UniProt P07766 23-126); experiment: BLI (Octet), His-labeled human CD3E on Ni-NTA sensors, antibody 3.125-100 nM
T3 construct: also called human CD3E antigen; antigen CD3E; not shown: His label
T3 sequence (P07766 23-126): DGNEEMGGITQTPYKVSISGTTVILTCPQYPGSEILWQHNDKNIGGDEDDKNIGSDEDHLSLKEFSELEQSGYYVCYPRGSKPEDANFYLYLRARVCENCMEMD
Protocol: (§1) The binding affinity constants of the purified murine monoclonal antibodies to antigen CD3E were determined by […] (BLI) with the ForteBio Octet RED&QK system from PALL Corporation. Concentration gradients of a multichannel parallel quantitative analysis were set to 3.125, 6.25, 12.5, 25, 50 and 100 nM, and His-labeled human CD3E (10 μg/mL) was coupled to Ni-NTA sensors.

[4] = biological target: T3, His-labeled human CD3E; experiment: BLI (Octet), method of Example 3: His-labeled human CD3E on Ni-NTA sensors
Protocol: as §1
For example, the experimental method for determining the kinetic constants and affinity equilibrium dissociation constants of the humanized antibodies was as described in Example 3.

T1 sequence (P07766 23-126 limits assumed): as the sequence (P07766 23-126) above

| EC50 [1] [nM] | EC50 [2] [nM] | Kd [3] [nM] | koff [3] [s⁻¹] | kon [3] [M⁻¹ s⁻¹] | Kd [4] [nM] | koff [4] [s⁻¹] | kon [4] [M⁻¹ s⁻¹] | Binder |
| --- | --- | --- | --- | --- | --- | --- | --- | --- |
| 0.0283 | 8.91 | 0.0194 | 1.04e-05 | 539000 | – | – | – | murine monoclonal antibody AP591 (antibody, mouse IgG1, V domains shown) VH: EVQLVESGGGLVQPKGSLKLSCAASGFTFNTYAMNWVRQAPGKGLEWVGRIRSKINNYATYYADSVRDRFTISRDDSQSMLYLQMSNLKTEDTAMYYCVRHDNFYGSTYSWFADWGQGTLVTVSA VL: AVVTQESALTTSPGETVTLTCRSSTGVVTTSNYANWVQEKPDHLFTGLIGATNYRVPGVPARFSGSLIGDKAALTITGAQTEDEAIYFCVLWYSNHWVFGGGTKLTVL |
| – | – | – | – | – | 1.8 | 0.000318 | 177000 | humanized antibody AB625 (antibody, V domains shown) VH: EVQLLESGGGLVQPGGSLKLSCAASGFTFNTYAMNWVRQAPGKGLEWVGRIRSKINNYATYYADSVKDRFTISRDDSKNTAYLQMNNLKTEDTAMYYCVRHDNFYGSTHSWFADWGQGTLVTVSS VL: ELVVTQEPSLTVSPGGTVTLTCRSSTGVVTTSNYANWVQEKPDHLFTGLIGATNYRAPGTPARFSGSLLGGKAALTLSGVQPEDEAIYFCVLWYSNHWVFGGGTKLTVL |
| – | – | – | – | – | 182 | 0.00169 | 9300 | humanized antibody AB626 (antibody, V domains shown) VH: EVQLLESGGGLVQPGGSLKLSCAASGFTFNTYAMNWVRQAPGKGLEWVGRIRSKINNYATYYADSVKDRFTISRDDSKNTAYLQMNNLKTEDTAMYYCVRHDNFYGSTYSHFADWGQGTLVTVSS VL: ELVVTQEPSLTVSPGGTVTLTCRSSTGVVTTSNYANWVQEKPDHLFTGLIGATNYRAPGTPARFSGSLLGGKAALTLSGVQPEDEAIYFCVLWYSNHWVFGGGTKLTVL |
| – | – | – | – | – | 0.677 | 0.000201 | 296000 | humanized antibody AB624 (antibody, V domains shown) VH: EVQLLESGGGLVQPGGSLKLSCAASGFTFNTYAMNWVRQAPGKGLEWVGRIRSKINNYATYYADSVKDRFTISRDDSKNTAYLQMNNLKTEDTAMYYCVRHDNFHGSTYSWFADWGQGTLVTVSS VL: ELVVTQEPSLTVSPGGTVTLTCRSSTGVVTTSNYANWVQEKPDHLFTGLIGATNYRAPGTPARFSGSLLGGKAALTLSGVQPEDEAIYFCVLWYSNHWVFGGGTKLTVL |
| – | – | – | – | – | ≤ 0.00264 | < 1e-07 | 7300 | humanized antibody AB627 (antibody, V domains shown) VH: EVQLLESGGGLVQPGGSLKLSCAASGFTFNTYAMNWVRQAPGKGLEWVGRIRSKINNYATYYADSVKDRFTISRDDSKNTAYLQMNNLKTEDTAMYYCVRHDNFYGSTYSWHADWGQGTLVTVSS VL: ELVVTQEPSLTVSPGGTVTLTCRSSTGVVTTSNYANWVQEKPDHLFTGLIGATNYRAPGTPARFSGSLLGGKAALTLSGVQPEDEAIYFCVLWYSNHWVFGGGTKLTVL |
| 0.0149 | 2.74 | 0.121 | 9.73e-05 | 802000 | – | – | – | murine monoclonal antibody AP191 (antibody, mouse IgG1, V domains shown) VH: QVQLQQSGPELVKPGASMKMSCKASGYTFTSYYIHWVKQRPGQGLEWIGWIYPGDGSTKFNEKFRGKTSLTADKSSNTAYMFLSSLTSEDSAIYFCARDGYSLYYFEFWGHGTTLTVSS VL: DIVMSQSPSSLAVSAGETVTMSCKSSQSLLNSRTRKTYLAWYQQKPGQSPKLLIYWASTRDSGVPDRFTGSGSGTDFTLTISSVQAEDLAVYYCVQSYTLRTFGGGTKLEIK |
| 0.0404 | 0.825 | – | – | 692000 | – | – | – | murine monoclonal antibody AP831 (antibody, mouse IgG1, V domains shown) VH: QVQLQQSGPELVKPGTSVKMSCKASGYTFTNNYIHWVKEKPGEGLEWIGWIYPGDGTTKYNEKFKGKTTLASDKSSNTVYMFLSSLTSEDSAIYFCTRNNNYYFDYWGQGTTLTVSS VL: DIVMSQSPSSLAVSAGEKVTMNCKSSQSLFNSRTRKNYLAWYQQKPGQSPKLLIYWASTRESGVPDRFTGSGSGTDFTLTISSVQAEDLALYYCKQSFILRTFGGGTKLEIK |

Second part, the binder before the results:

| Binder | EC50 [1] [nM] | EC50 [2] [nM] | Kd [3] [nM] | koff [3] [s⁻¹] | kon [3] [M⁻¹ s⁻¹] | Kd [4] [nM] | koff [4] [s⁻¹] | kon [4] [M⁻¹ s⁻¹] |
| --- | --- | --- | --- | --- | --- | --- | --- | --- |
| humanized antibody AB616 (antibody, V domains shown) VH: EVQLLESGGGLVQPGGSLKLSCAASGFTFDTYAMNWVRQAPGKGLEWVGRIRSKINNYATYYADSVKDRFTISRDDSKNTAYLQMNNLKTEDTAMYYCVRHDNFYGSTYSWFADWGQGTLVTVSS VL: ELVVTQEPSLTVSPGGTVTLTCRSSTGVVTTSNYANWVQEKPDHLFTGLIGATNYRAPGTPARFSGSLLGGKAALTLSGVQPEDEAIYFCVLWYSNHWVFGGGTKLTVL | – | – | – | – | – | 0.116 | 2.97e-05 | 256000 |
| humanized antibody AB620 (antibody, V domains shown) VH: EVQLLESGGGLVQPGGSLKLSCAASGFTFDTYAMNWVRQAPGKGLEWVGRIRSKINNYATYYADSVKDRFTISRDDSKNTAYLQMNNLKTEDTAMYYCVRHDNFYGSTYSWFADWGQGTLVTVSS VL: ELVVTQEPSLTVSPGGTVTLTCRSSTGVVTTSNYANWVQEKPDHLFTGLIGATDYRAPGTPARFSGSLLGGKAALTLSGVQPEDEAIYFCVLWYSNHWVFGGGTKLTVL | – | – | – | – | – | 0.169 | 4.26e-05 | 253000 |
| humanized antibody AB621 (antibody, V domains shown) VH: EVQLLESGGGLVQPGGSLKLSCAASGFTFNTYAMNWVRQAPGKGLEWVGRIRSKINNYATYYADSVKDRFTISRDDSKNTAYLQMNNLKTEDTAMYYCVRHDNFYGSTYSWFADWGQGTLVTVSS VL: ELVVTQEPSLTVSPGGTVTLTCRSSTGVVTTSNHANWVQEKPDHLFTGLIGATNYRAPGTPARFSGSLLGGKAALTLSGVQPEDEAIYFCVLWYSNHWVFGGGTKLTVL | – | – | – | – | – | 2.12 | 0.000369 | 174000 |
| humanized antibody AB619 (antibody, V domains shown) VH: EVQLLESGGGLVQPGGSLKLSCAASGFTFNTYAMNWVRQAPGKGLEWVGRIRSKINNYATYYADSVKDRFTISRDDSKNTAYLQMNNLKTEDTAMYYCVRHDNFYGSTYSWFADWGQGTLVTVSS VL: ELVVTQEPSLTVSPGGTVTLTCRSSTGVVTTSNYANWVQEKPDHLFTGLIGATDYRAPGTPARFSGSLLGGKAALTLSGVQPEDEAIYFCVLWYSNHWVFGGGTKLTVL | – | – | – | – | – | 0.123 | 3.41e-05 | 276000 |
| humanized antibody AB622 (antibody, V domains shown) VH: EVQLLESGGGLVQPGGSLKLSCAASGFTFNTYAMNWVRQAPGKGLEWVGRIRSKINNYATYYADSVKDRFTISRDDSKNTAYLQMNNLKTEDTAMYYCVRHDNFYGSTYSWFADWGQGTLVTVSS VL: ELVVTQEPSLTVSPGGTVTLTCRSSTGVVTTSNYANWVQEKPDHLFTGLIGATNHRAPGTPARFSGSLLGGKAALTLSGVQPEDEAIYFCVLWYSNHWVFGGGTKLTVL | – | – | – | – | – | 1.45 | 0.000391 | 270000 |
| humanized antibody AB615 (antibody, V domains shown) VH: EVQLLESGGGLVQPGGSLKLSCAASGFDFNTYAMNWVRQAPGKGLEWVGRIRSKINNYATYYADSVKDRFTISRDDSKNTAYLQMNNLKTEDTAMYYCVRHDNFYGSTYSWFADWGQGTLVTVSS VL: ELVVTQEPSLTVSPGGTVTLTCRSSTGVVTTSNYANWVQEKPDHLFTGLIGATNYRAPGTPARFSGSLLGGKAALTLSGVQPEDEAIYFCVLWYSNHWVFGGGTKLTVL | – | – | – | – | – | 0.668 | 0.00017 | 254000 |
| humanized antibody AB617 (antibody, V domains shown) VH: EVQLLESGGGLVQPGGSLKLSCAASGFTFNDYAMNWVRQAPGKGLEWVGRIRSKINNYATYYADSVKDRFTISRDDSKNTAYLQMNNLKTEDTAMYYCVRHDNFYGSTYSWFADWGQGTLVTVSS VL: ELVVTQEPSLTVSPGGTVTLTCRSSTGVVTTSNYANWVQEKPDHLFTGLIGATNYRAPGTPARFSGSLLGGKAALTLSGVQPEDEAIYFCVLWYSNHWVFGGGTKLTVL | – | – | – | – | – | 2.77 | 0.000698 | 252000 |
| humanized antibody AB618 (antibody, V domains shown) VH: EVQLLESGGGLVQPGGSLKLSCAASGFTFNTYAMNWVRQAPGKGLEWVGRIRSKINNYATYYADSVKDRFTISRDDSKNTAYLQMNNLKTEDTAMYYCVRHDNFYGSTYSWFADWGQGTLVTVSS VL: ELVVTQEPSLTVSPGGTVTLTCRSSTGVVTTSNYANWVQEKPDHLFTGLIGDTNYRAPGTPARFSGSLLGGKAALTLSGVQPEDEAIYFCVLWYSNHWVFGGGTKLTVL | – | – | – | – | – | < 0.001 | < 1e-07 | 51200 |
| humanized antibody AB623 (antibody, V domains shown) VH: EVQLLESGGGLVQPGGSLKLSCAASGFTFNTYAMNWVRQAPGKGLEWVGRIRSKINNYATYYADSVKDRFTISRDDSKNTAYLQMNNLKTEDTAMYYCVRHDNHYGSTYSWFADWGQGTLVTVSS VL: ELVVTQEPSLTVSPGGTVTLTCRSSTGVVTTSNYANWVQEKPDHLFTGLIGATNYRAPGTPARFSGSLLGGKAALTLSGVQPEDEAIYFCVLWYSNHWVFGGGTKLTVL | – | – | – | – | – | 23.3 | 0.00119 | 51200 |
